The target in assay [1] is T1, eck receptor (p130^eck), full length, on LIM 2405 cells or on CHO 19.32 cells transfected with the full … (human, UniProt P29317 24-976).
T1 construct: whole, on cells; also called EBP receptors
Briefly: Scatchard analysis of steady-state binding of 125I-rEBP to LIM2405 cells, 0° C. As to the method:
Nonspecific binding was determined from parallel reactions containing a 50 fold excess of unlabeled EBP.

The target of assay [2] is T2, eck receptor extracellular domain (eck-x), soluble, expressed in CHO cells (human, UniProt P29317 24-537).
T2 construct: extracellular domain; The construct ends at Asn534 (numbering of the eck cDNA of Lindberg et al.); Immobilized on BIAcore chips or on CNBr-Sepharose; also called soluble eck receptor; recombinant human Eck extracellular domain
T2 sequence (P29317 24-537): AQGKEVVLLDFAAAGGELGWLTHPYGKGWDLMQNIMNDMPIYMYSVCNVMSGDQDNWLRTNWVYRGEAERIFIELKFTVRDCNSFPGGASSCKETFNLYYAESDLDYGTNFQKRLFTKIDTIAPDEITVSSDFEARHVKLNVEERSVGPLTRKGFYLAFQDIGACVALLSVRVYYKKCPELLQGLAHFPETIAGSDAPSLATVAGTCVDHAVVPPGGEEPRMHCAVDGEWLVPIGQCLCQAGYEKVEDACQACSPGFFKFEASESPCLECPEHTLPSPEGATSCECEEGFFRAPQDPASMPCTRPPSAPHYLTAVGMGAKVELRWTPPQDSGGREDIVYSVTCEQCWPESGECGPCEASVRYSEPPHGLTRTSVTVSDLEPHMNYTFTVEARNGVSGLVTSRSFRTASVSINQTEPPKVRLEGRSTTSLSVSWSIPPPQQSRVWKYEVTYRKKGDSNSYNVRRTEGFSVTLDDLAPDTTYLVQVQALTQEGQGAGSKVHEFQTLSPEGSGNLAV
Put plainly: BIAcore, EBP on immobilized eck-x. (SPR reads the build-up and loss of mass on a sensor chip optically.)

The next assay deals with rat Eck receptor (rat) (UniProt D3ZBN3). Briefly: cell-based or functional assay.
Sequence of rat Eck receptor (rat) (D3ZBN3 entry or part of it limits assumed, form in doubt): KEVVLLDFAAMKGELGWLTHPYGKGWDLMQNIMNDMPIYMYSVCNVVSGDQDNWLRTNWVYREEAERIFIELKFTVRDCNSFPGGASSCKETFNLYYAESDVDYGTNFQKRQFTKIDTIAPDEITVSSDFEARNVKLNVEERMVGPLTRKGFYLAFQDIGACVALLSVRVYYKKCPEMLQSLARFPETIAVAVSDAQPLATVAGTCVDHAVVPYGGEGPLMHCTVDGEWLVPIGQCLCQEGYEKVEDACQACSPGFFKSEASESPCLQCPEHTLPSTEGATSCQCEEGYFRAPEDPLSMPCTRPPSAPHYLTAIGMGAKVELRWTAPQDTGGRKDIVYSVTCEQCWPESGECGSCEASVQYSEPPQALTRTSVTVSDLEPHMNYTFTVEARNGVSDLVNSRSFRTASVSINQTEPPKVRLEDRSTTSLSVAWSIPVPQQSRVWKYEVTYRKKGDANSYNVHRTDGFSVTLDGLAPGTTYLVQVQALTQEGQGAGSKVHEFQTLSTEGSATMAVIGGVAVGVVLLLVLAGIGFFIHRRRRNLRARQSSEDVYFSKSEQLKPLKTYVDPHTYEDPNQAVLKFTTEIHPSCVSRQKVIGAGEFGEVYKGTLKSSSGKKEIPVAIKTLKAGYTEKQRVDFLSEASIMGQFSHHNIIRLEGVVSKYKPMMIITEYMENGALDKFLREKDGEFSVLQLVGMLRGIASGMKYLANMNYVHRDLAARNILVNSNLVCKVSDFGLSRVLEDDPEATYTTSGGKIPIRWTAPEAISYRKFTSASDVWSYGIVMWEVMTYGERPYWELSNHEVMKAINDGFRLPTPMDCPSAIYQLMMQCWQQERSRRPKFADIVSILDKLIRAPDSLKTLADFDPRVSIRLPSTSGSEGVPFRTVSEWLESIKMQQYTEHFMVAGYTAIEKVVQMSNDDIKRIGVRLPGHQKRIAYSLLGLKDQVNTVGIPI

A value given as a limit tells only on which side of the number the result lay.

T1 sequence (P29317 24-976): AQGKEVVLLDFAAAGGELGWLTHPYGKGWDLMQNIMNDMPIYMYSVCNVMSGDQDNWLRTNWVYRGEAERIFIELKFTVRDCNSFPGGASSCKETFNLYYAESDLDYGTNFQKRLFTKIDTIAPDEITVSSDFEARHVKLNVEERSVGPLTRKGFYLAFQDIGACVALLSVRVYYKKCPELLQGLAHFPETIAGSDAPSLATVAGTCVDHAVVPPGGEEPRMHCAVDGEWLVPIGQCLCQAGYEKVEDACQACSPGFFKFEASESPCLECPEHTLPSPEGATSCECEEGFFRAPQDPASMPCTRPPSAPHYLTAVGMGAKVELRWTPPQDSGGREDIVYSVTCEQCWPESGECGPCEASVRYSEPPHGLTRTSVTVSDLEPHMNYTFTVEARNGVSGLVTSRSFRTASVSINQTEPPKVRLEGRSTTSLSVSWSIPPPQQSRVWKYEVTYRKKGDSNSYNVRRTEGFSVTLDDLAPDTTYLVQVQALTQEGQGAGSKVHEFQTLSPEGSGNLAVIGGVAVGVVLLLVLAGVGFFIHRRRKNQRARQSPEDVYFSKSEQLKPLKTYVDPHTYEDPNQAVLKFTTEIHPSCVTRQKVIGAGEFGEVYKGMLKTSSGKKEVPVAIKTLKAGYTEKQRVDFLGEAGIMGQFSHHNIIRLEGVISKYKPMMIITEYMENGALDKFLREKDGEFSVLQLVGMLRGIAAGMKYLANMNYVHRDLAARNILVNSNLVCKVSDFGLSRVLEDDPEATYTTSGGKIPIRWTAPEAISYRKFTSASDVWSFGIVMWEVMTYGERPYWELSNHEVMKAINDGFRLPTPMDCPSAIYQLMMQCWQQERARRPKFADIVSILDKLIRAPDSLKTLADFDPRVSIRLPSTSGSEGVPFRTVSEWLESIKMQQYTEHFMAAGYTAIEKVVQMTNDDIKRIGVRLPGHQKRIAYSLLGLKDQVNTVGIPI

B1: recombinant EBP from CHO cells transfected with the EBP gene (ligand)
chain: DRHTVFWNSSNPKFRNEDYTIHVQLNDYVDIICPHYEDHSVADAAMEQYILYLVEHEEYQLCQPQSKDQVRWQCNRPSAKHGPEKLSEKFQRFTPFTLGKEFKEGHSYYYISKPIHQHEDRCLRLKVTVSGKITHSPQAHVNPQEKRLAA
notes: the entry may begin with a leader at negative positions; also called CHO rEBP; rEBP
For the molecule B1, the Kd in assay [1] was determined as 28 nM. In assay [2], the dissociation constant (Kd) is approximately 24 nM. For the same molecule, in the assay with rat Eck receptor (rat), the ED50 of survival of embryonic rat spinal cord neurons after 9 days in culture is less than 10 µg/mL and the enhancement of survival of embryonic rat spinal cord neurons after 9 days in culture was less than 84%.

The Kd is the equilibrium constant for the complex coming apart. High values mean a looser complex, low ones a tighter complex.

For the origin of these results see patent publication US6479250 (Amgen, dated 2002).
